Experimental findings from patent US20030054535A1, “Endoglucanase mutants and mutant hydrolytic depolymerizing enzymes and uses thereof” (priority 1999, published 2003) are described below.

Substrate in data set [1]: OC[C@H]1O[C@@H](O[C@H]2[C@H](O)[C@@H](O)[C@H](O[C@H]3[C@H](O)[C@@H](O)C(O)O[C@@H]3CO)O[C@@H]2CO)[C@H](O)[C@@H](O)[C@@H]1O
The data set can be described thus: purified protein, by the assay type. Conditions: other: cellotriose, 5 mM acetate pH 5.0, 50 degrees C, 50.0 °C.

Substrate in data set [2]: OC[C@H]1O[C@@H](O[C@H]2[C@H](O)[C@@H](O)[C@H](O[C@H]3[C@H](O)[C@@H](O)C(O)O[C@@H]3CO)O[C@@H]2CO)[C@H](O)[C@@H](O)[C@@H]1O
The data set can be described thus: purified protein, by the assay type. The note with it: other: cellotriose, 5 mM acetate pH 5.0, 50 degrees C, 50.0 °C. The data set is classed as biochemical, Acidothermus cellulolyticus.

B1: Acidothermus cellulolyticus EI endoglucanase (Cel5A) catalytic domain, native (wild type), SEQ ID NO:3 of U.S. Pat. No. 5,536,655 (Acidothermus cellulolyticus … (protein)
chain: AGGGYWHTSGREILDANNVPVRIAGINWFGFETCNYVVHGLWSRDYRSMLDQIKSLGYNTIRLPYSDDILKPGTMPNSINFYQMNQDLQGLTSLQVMDKIVAYAGQIGLRIILDRHRPDCSGQSALWYTSSVSEATWISDLQALAQRYKGNPTVVGFDLHNEPHDPACWGCGDPSIDWRLAAERAGNAVLSVNPNLLIFVEGVQSYNGDSYWWGGNLQGAGQYPVVLNVPNRLVYSAHDYATSVYPQTWFSDPTFPNNMPGIWNKNWGYLFNQNIAPVWLGEFGTTLQSTTDQTWLKTLVQYLRPTAQYGADSFQWTFWSWNPDSGDTGGILKDDWQTVDTVKDGYLAPIKSSIFDPVG
Regarding B1, in data set [1], the Km is 350 µM and the Vmax was found to be 0.86 µM/min.

B2: Acidothermus cellulolyticus EI endoglucanase (Cel5A) catalytic domain variant W42R, SEQ ID NO:1 (Acidothermus cellulolyticus 11B; W83R) (protein)
chain: AGGGYWHTSGREILDANNVPVRIAGINWFGFETCNYVVHGLRSRDYRSMLDQIKSLGYNTIRLPYSDDILKPGTMPNSINFYQMNQDLQGLTSLQVMDKIVAYAGQIGLRIILDRHRPDCSGQSALWYTSSVSEATWISDLQALAQRYKGNPTVVGFDLHNEPHDPACWGCGDPSIDWRLAAERAGNAVLSVNPNLLIFVEGVQSYNGDSYWWGGNLQGAGQYPVVLNVPNRLVYSAHDYATSVYPQTWFSDPTFPNNMPGIWNKNWGYLFNQNIAPVWLGEFGTTLQSTTDQTWLKTLVQYLRPTAQYGADSFQWTFWSWNPDSGDTGGILKDDWQTVDTVKDGYLAPIKSSIFDPV
notes: the protein was genetically truncated near the beginning of the linker peptide; made in house; host or cells: E. coli XL1-blue
Turning to B2, in data set [2], the Km stood at 610 µM and the Vmax stood at 0.99 µM/min.

B3: Acidothermus cellulolyticus EI endoglucanase (Cel5A) catalytic domain variant Y245G, SEQ ID NO:3 (Acidothermus cellulolyticus 11B; Y286G) (protein)
chain: AGGGYWHTSGREILDANNVPVRIAGINWFGFETCNYVVHGLWSRDYRSMLDQIKSLGYNTIRLPYSDDILKPGTMPNSINFYQMNQDLQGLTSLQVMDKIVAYAGQIGLRIILDRHRPDCSGQSALWYTSSVSEATWISDLQALAQRYKGNPTVVGFDLHNEPHDPACWGCGDPSIDWRLAAERAGNAVLSVNPNLLIFVEGVQSYNGDSYWWGGNLQGAGQYPVVLNVPNRLVYSAHDYATSVGPQTWFSDPTFPNNMPGIWNKNWGYLFNQNIAPVWLGEFGTTLQSTTDQTWLKTLVQYLRPTAQYGADSFQWTFWSWNPDSGDTGGILKDDWQTVDTVKDGYLAPIKSSIFDPV
notes: the mutant and wild type Cel5A catalytic domains were purified using the purification methods described above; made in house; host or cells: E. coli XL1-blue
On to B3, for which, in data set [2], the Km is 480 µM and the Vmax was determined as 0.85 µM/min.

B4: Acidothermus cellulolyticus EI endoglucanase (Cel5A) catalytic domain variant Y82R, SEQ ID NO:2 (Acidothermus cellulolyticus 11B; Y123R) (protein)
chain: AGGGYWHTSGREILDANNVPVRIAGINWFGFETCNYVVHGLWSRDYRSMLDQIKSLGYNTIRLPYSDDILKPGTMPNSINFRQMNQDLQGLTSLQVMDKIVAYAGQIGLRIILDRHRPDCSGQSALWYTSSVSEATWISDLQALAQRYKGNPTVVGFDLHNEPHDPACWGCGDPSIDWRLAAERAGNAVLSVNPNLLIFVEGVQSYNGDSYWWGGNLQGAGQYPVVLNVPNRLVYSAHDYATSVYPQTWFSDPTFPNNMPGIWNKNWGYLFNQNIAPVWLGEFGTTLQSTTDQTWLKTLVQYLRPTAQYGADSFQWTFWSWNPDSGDTGGILKDDWQTVDTVKDGYLAPIKSSIFDPV
notes: as for B2
As for B4, in data set [2], the Km came to 690 µM and the Vmax was 1.5 µM/min.
